In patent publication US20220064294A1:

Molecular target: mouse TIGIT, full length, on CHO-K1 cells (mouse) (UniProt P86176)
Test: flow cytometry, CHO-K1 cells transiently transfected with mouse TIGIT; target taken from the legend paragraph 32 and from paragraph 286 (FIG. 4A = mouse TIGIT); paragraph 286 however names GNE10A7, not G1GD7, as the control for mouse TIGIT

Chain of mouse TIGIT, full length, on CHO-K1 cells (mouse) (P86176 29-249 limits assumed): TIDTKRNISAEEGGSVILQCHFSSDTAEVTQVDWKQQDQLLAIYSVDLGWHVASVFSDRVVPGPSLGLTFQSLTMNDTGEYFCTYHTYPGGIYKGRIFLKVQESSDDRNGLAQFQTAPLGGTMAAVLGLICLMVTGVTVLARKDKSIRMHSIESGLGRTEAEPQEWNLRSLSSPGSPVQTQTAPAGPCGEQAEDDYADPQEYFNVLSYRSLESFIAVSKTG

## eBioscience G1GD7 (antibody)
  EC50 (read off the curve): 0.8 nM
